Reference: patent publication US20210292393A1

Target: SARS-CoV-2 full length spike protein, V483A mutant (SARS-CoV-2), P0DTC2
Conditions: remark: other sources report otherwise

B1: antibody 262 (antibody, V domains shown)
VH: QVQLVESGGGVVQPGRSLRLSCAASGFTFSSYAMHWVRQAPGKGLEWVAVISYDGSNKYYADSVKGRFTISRDNSKNTLYLQMNSLRAEDTAVYYCARDGGELLWFGELDYYGMDVWGQGTTVTVSS
VL: SYELTQPSSVSVSPGQTARITCSGDVLAKKYARWFQQKPGQAPVLVIYKDSERPSGIPERFSGSSSGTTVTLTISGAQVEDEADYYCYSAADNNRGVFGGGTKLTVL
Question: Which median fluorescence intensity, fold over isotype control (fold over isotype) does the source give for B1 here?
Answer: 1.63
